Target: CD19/CD20 bispecific CAR (Leu16 scFv-(G4S)4-FMC63 scFv-IgG4 hinge-CD28 TM-4-1BB-CD3 zeta)
Assay: flow cytometry, staining of T cells (donor 1917) transduced with CD19/20 CAR lentiviral vector

Chain of CD19/CD20 bispecific CAR (Leu16 scFv-(G4S)4-FMC63 scFv-IgG4 hinge-CD28 TM-4-1BB-CD3 zeta) (chain, as listed by the source): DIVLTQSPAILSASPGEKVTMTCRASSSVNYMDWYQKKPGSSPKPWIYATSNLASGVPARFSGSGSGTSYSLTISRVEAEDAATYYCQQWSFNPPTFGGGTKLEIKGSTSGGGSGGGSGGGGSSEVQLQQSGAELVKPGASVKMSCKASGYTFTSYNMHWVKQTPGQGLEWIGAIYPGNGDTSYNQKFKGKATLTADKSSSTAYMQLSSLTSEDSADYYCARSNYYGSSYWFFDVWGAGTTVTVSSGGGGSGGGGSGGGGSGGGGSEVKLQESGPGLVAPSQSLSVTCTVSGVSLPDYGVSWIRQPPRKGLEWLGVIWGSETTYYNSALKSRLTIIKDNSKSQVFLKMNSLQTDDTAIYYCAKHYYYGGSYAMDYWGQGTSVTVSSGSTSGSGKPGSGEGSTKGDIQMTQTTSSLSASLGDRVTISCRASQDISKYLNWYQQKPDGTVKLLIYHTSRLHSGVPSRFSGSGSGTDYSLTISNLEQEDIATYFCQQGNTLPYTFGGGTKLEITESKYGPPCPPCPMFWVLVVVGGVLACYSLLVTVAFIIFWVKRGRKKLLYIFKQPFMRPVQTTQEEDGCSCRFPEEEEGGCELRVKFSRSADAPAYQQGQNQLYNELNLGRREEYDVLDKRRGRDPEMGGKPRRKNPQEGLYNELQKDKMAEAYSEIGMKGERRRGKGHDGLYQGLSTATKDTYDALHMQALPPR

Byotinilated anti-FMC63 (Acros) (antibody)
% Positive Cells: 59.6%

— patent US20260152553A1
